Experimental findings from US20140120557A1 are described below.

In test [1] the target is 5C.C7 TCR (as measured by surface plasmon resonance) (mouse). Briefly: SPR.
The target of test [2] is 5C.C7 TCR on 5C.C7 T cell blasts (mouse) (UniProt A2KF29). Description: flow cytometry; 2 µM BioMCC(ASA)-I-Ek photocrosslinked to 5C.C7 T cell blasts, against about 38,000 TCRs per T cell. Background: In flow cytometry, cells or beads pass a laser one at a time.
For test [3] the target is unchanged. Briefly: flow cytometry; 5C.C7 T cell blasts, one hour at room temperature after staining.
The target is the same in test [4]. Briefly: cell-based or functional assay.
Test [5] concerns the target OT-1 TCR on naïve OT-1 T cells (mouse). Briefly: flow cytometry; naïve OT-1 T cells, pMHC 1 µM, UV photocrosslinking, PE-SAv.

Bounds are passed on as bounds.

Sequence of 102S-I-Ek (P04224 26-216): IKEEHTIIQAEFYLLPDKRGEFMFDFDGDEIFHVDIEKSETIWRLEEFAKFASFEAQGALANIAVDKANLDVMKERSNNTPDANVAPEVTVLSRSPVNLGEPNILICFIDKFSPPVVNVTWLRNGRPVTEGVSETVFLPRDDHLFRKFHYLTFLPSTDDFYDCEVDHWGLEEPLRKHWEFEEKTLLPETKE
Sequence of PE-conjugated MCC-I-Ek tetramer (P04224 26-216): as above
Sequence of MCC(Cy5)-I-Ek (P04224 26-216): as above
Sequence of OVA(ASA)-Kb (P01901 22-305): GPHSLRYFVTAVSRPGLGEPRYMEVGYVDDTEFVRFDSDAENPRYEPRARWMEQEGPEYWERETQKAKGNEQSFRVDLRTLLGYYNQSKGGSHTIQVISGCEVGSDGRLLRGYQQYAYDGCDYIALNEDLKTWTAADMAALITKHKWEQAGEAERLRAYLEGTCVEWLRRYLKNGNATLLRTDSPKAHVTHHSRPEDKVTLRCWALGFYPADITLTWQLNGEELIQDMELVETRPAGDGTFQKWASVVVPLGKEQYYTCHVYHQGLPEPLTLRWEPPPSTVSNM

One may read the Kd as the equilibrium constant for the complex coming apart. A high value points to a looser complex. In test [1], “102S-I-Ek (from UniProt P04224 26-216) (peptide-MHC)” came in with a Kd of 206 µM and a t1/2 of 0.83 s.

With “BioMCC(ASA)-I-Ek (from UniProt P04224 26-216) (peptide-MHC)”, the percent of the total TCRs on a T cell surface permanently bound in test [2] turned out to be 16%. In test [3], the decrease of the staining signal after one hour at room temperature was found to be 5%. Besides, in test [4], the duration of calcium flux on planar lipid bilayer with ICAM-1 and B7-1 is above 10 min; the duration of calcium flux on planar lipid bilayer without ICAM-1 and B7-1 worked out at 3 min; the peak of fura-2 excitation ratio (340 nm/380 nm) above the baseline; 5100 or 7900 photocrosslinked pMHCs per cell was 2.5 fold.

For the substance “MCC(Cy5)-I-Ek (from UniProt P04224 26-216) (peptide-MHC)”, in test [4], the peak of fura-2 excitation ratio (340 nm/380 nm) above the baseline; 6100 standard agonist pMHCs per cell was found to be 2.5 fold.

As for “OVA(ASA)-Kb (from UniProt P01901 22-305) (peptide-MHC)”, the fold efficiency of staining against the null SIAAFASL(ASA)-Kb monomer in test [5] was above 10 fold.

Turning to “PE-conjugated MCC-I-Ek tetramer (from UniProt P04224 26-216) (peptide-MHC)”, the decrease of the staining signal after one hour at room temperature in test [3] was 50%.
